Laboratory results reported in patent US20030166162.

Experiments:
[1] = tested on: poly histidine tagged chymosin pro-peptide carp growth hormone fusion protein
[2] = tested on: GST-Chymosin pro-peptide-Hirudin fusion protein

enterokinase
cleavage of the fusion protein, SDS-PAGE and Western blot [1]: cleavage of the fusion protein was observed with enterokinase yielding a protein band corresponding to the calculated molecular mass of the Pro-cGH fusion (26 kDa)

chymosin (Sigma)
cleavage of the fusion protein at pH 2.0, Western blotting (results not shown) [2]: complete cleavage was also observed when the GST-Pro-Hirudin fusion which was treated at pH 2.0 and supplemented with 2 ug chymosin
cleavage of the fusion protein at pH 4.5, Western blotting (results not shown) [2]: apart from treatment at pH 4.5, complete cleavage was also observed
cleavage of the fusion protein at pH 2, SDS-PAGE and Western blot [1]: the cleavage with chymosin yielded a protein band corresponding to the expected theoretical molecular mass of the cGH (approximately 22 kDa) polypeptide
